Reference: article PMC3785136

Target: human telomerase reverse transcriptase hTERT (WT) (human) (UniProt O14746)
Assay: sucrose gradient sedimentation

Work on “human telomerase reverse transcriptase hTERT (WT) (from UniProt O14746 1-1132) (enzyme)” yielded a stoichiometry N of 2.
